Laboratory results from publication PMC7615550, “Structural mechanism of outer kinetochore Dam1:Ndc80 complex assembly on microtubules” (Science (New York, N.Y.), 2023).
Values belong to the molecule of their own block, whether it stands above or below them.

B2: Spc34 subunit of the Dam1 complex (natural protein, S. cerevisiae)
chain: MGESLDRCIDDINRAVDSMSTLYFKPPGIFHNAILQGASNKASIRKDITRLIKDCNHDEAYLLFKVNPEKQSVSRRDGKEGVFDYVIKRDTDMKRNRRLGRPGEKPIIHVPKEVYLNKDRLDLNNKRRRTATTSGGGLNGFIFDTDLIGSSVISNSSSGTFKALSAVFKDDPQIQRLLYALENGSVLMEEESNNQRRKTIFVEDFPTDLILKVMAEVTDLWPLTEFKQDYDQLYHNYEQLSSKLRFIKKEVLLQDDRLKTMSQYHPSSSHDVAKIIRKEKDEIRRLEMEIANLQE
notes: Spc34, S. cerevisiae, as a subunit of the reconstituted Dam1 complex; Stood in the assay inside the whole Dam1c; source: purified as part of Dam1c
B4: Dam1 subunit of the Dam1 complex (natural protein, S. cerevisiae)
chain: MSEDKAKLGTTRSATEYRLSIGSAPTSRRSSMGESSSLMKFADQEGLTSSVGEYNENTIQQLLLPKIRELSDSIITLDSNFTRLNFIHESLADLNESLGSLLYGIMSNSWCVEFSQAPHDIQDDLIAIKQLKSLEDEKNNLVMELSNMERGIKRKKDEQGENDLAKASQNKQFNQPLFPSSQVRKYRSYDNRDKRKPSKIGNNLQVENEEDYEDDTSSEASFVLNPTNIGMSKSSQGHVTKTTRLNNNTNSKLRRKSILHTIRNSIASGADLPIENDNVVNLGDLHPNNRISLGSGAARVVNGPVTKNRNSMFSGRAERKPTESRHSVAKKTEKKINTRPPFR
notes: Dam1, S. cerevisiae, as a subunit of the reconstituted Dam1 complex; Stood in the assay inside the whole Dam1c; also called Dam1^Staple (residues 1-26); Dam1^C-ter; source: purified as part of Dam1c

Legend:
[1] = target: Ndc80 complex (heterotetramer of Ndc80, Nuf2, Spc24 and Spc25, S. cerevisiae), wild type (S. cerevisiae) (UniProt P40460)
Chain of Ndc80 complex (heterotetramer of Ndc80, Nuf2, Spc24 and Spc25, S. cerevisiae), wild type (S. cerevisiae) (P40460 whole entry, chain 1 of 4): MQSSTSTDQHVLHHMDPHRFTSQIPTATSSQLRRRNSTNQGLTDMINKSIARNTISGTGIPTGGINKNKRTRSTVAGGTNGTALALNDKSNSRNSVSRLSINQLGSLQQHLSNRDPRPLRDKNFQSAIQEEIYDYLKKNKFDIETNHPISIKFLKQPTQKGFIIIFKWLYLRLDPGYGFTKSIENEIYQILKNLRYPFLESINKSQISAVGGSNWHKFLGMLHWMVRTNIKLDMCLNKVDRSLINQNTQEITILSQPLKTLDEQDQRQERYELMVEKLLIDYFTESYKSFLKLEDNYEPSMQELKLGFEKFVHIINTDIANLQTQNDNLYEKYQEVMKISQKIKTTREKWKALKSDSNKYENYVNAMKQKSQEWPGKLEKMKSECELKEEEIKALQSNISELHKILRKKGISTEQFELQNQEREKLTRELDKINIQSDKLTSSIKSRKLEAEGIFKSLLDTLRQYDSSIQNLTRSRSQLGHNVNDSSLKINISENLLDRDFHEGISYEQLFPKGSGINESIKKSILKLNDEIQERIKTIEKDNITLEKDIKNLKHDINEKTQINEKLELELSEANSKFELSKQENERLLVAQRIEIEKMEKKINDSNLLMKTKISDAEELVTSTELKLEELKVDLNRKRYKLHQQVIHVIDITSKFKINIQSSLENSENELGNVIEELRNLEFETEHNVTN
Chain of Ndc80 complex (heterotetramer of Ndc80, Nuf2, Spc24 and Spc25, S. cerevisiae), wild type (S. cerevisiae) (P33895 whole entry, chain 2 of 4, further chain): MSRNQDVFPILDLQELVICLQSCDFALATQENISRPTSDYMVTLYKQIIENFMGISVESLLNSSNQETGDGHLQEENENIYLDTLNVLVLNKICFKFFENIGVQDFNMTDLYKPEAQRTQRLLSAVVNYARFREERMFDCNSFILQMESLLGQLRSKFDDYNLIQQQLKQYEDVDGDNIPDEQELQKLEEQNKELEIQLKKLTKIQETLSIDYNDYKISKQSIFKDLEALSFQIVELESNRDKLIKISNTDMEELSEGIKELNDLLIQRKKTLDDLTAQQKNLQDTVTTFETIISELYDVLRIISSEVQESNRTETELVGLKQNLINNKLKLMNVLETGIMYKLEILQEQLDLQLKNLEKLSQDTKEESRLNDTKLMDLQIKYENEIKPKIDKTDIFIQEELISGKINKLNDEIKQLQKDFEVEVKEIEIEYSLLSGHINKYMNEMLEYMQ
Chain of Ndc80 complex (heterotetramer of Ndc80, Nuf2, Spc24 and Spc25, S. cerevisiae), wild type (S. cerevisiae) (Q04477 whole entry, chain 3 of 4, further chain): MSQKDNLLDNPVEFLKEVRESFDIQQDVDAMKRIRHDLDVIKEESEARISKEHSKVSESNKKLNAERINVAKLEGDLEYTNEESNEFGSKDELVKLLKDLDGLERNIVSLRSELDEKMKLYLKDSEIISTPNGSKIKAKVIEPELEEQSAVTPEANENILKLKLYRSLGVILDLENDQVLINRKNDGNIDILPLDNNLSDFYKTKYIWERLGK
Chain of Ndc80 complex (heterotetramer of Ndc80, Nuf2, Spc24 and Spc25, S. cerevisiae), wild type (S. cerevisiae) (P40014 whole entry, chain 4 of 4, further chain): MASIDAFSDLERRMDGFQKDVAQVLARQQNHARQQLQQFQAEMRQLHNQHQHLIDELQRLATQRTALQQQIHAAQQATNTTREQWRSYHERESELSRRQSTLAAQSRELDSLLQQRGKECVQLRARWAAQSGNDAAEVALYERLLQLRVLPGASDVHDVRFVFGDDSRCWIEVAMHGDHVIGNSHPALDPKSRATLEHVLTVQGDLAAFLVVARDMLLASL

[2] = target: Dam1 complex (ten-subunit, S. cerevisiae), wild type (S. cerevisiae) (UniProt P53267); assay: cryo-EM structure; outer kinetochore Dam1c:Ndc80c:microtubule complexes assembled on cryo-EM grids by step-wise addition of taxol-stabilized microtubules, Ndc80c, and Dam1c
[3] = target: Dam1 complex (ten-subunit, S. cerevisiae), wild type, P53267;Q12248;P35734;P69851;P36131;Q03954; assay: optical trap force-rupture assay; conditions: Ndc80c + Dam1c on microtubules; N=154 (parent N=150); parent: 10.4
[4] = target: microtubules (α/β-tubulin) (UniProt P02554); assay: optical trap force-rupture assay; conditions: Ndc80c alone (no Dam1c) on microtubules; N=81 (parent N=119); parent: 5.4
[5] = target: microtubules (α/β-tubulin) (UniProt P02554); assay: optical trap force-rupture assay; rupture of outer kinetochore - microtubule attachments; each event is the maximum trap force before rupturing; medians; Ndc80c alone
[6] = target: B4; assay: cryo-EM structure; outer kinetochore Dam1c:Ndc80c:microtubule complexes assembled on cryo-EM grids by step-wise addition of taxol-stabilized microtubules, Ndc80c, and Dam1c; conditions: both partners purified
[7] = target: T1, Ndc80 complex (heterotetramer of Ndc80, Nuf2, Spc24 and Spc25, S. cerevisiae), wild type (S. cerevisiae, UniProt P40460 1-691; P33895 1-451; Q04477 1-213; P40014 1-221); assay: as above; conditions: both partners purified
T1 construct: Ndc80 subunit of the S. cerevisiae Ndc80 complex; Nuf2 subunit of the S. cerevisiae Ndc80 complex; Spc24 subunit of the S. cerevisiae Ndc80 complex (no cryo-EM density visible); Spc25 subunit of the S. cerevisiae Ndc80 complex (no cryo-EM density visible); also called Ndc80c^CH; Ndc80^CC:Nuf2^CC; source: purified; copies: + + +
T1 sequence (P40460 whole entry, chain 1 of 4): as the sequence (P40460 whole entry, chain 1 of 4) above
T1 sequence (P33895 whole entry, chain 2 of 4): as the sequence (P33895 whole entry, chain 2 of 4, further chain) above
T1 sequence (Q04477 whole entry, chain 3 of 4): as the sequence (Q04477 whole entry, chain 3 of 4, further chain) above
T1 sequence (P40014 whole entry, chain 4 of 4): as the sequence (P40014 whole entry, chain 4 of 4, further chain) above

[8] = target: T2, Ndc80 subunit of the Ndc80 complex (S. cerevisiae, UniProt P40460 1-691); assay: as above; conditions: both partners purified
T2 construct: Ndc80, S. cerevisiae, as a subunit of the reconstituted Ndc80 complex; Stood in the assay inside the whole Ndc80c; also called Ndc80^CH; Ndc80^CC; source: purified as part of Ndc80c
T2 sequence (P40460 whole entry, one chain of several): as the sequence (P40460 whole entry, chain 1 of 4) above

[9] = target: B2; assay: as above; conditions: both partners purified

Molecule: Dam1 complex (ten-subunit, S. cerevisiae), wild type (from UniProt P53267 1-343; Q12248 1-94; P35734 1-292; P69851 1-72; P36131 1-295; Q03954 1-165)
median rupture force of Ndc80c - microtubule attachments in the presence of Dam1c (optical trap force-rupture assay) [1]: 10.4 pN | stoichiometry N [2]: 16

Molecule: Dam1 complex with the Dam1 C-terminal mutant (I258/L259/I262 mutated) (from UniProt P53267 1-343; Q12248 1-94; P35734 1-292; P69851 1-72; P36131 1-295; Q03954 1-165)
median rupture force of Ndc80c - microtubule attachments in the presence of the Dam1 C-ter mutant Dam1c (optical trap force-rupture assay) [1]: 5.5 pN

Molecule: Ndc80 complex (heterotetramer of Ndc80, Nuf2, Spc24 and Spc25, S. cerevisiae), wild type (from UniProt P40460 1-691; P33895 1-451; Q04477 1-213; P40014 1-221)
median rupture force [5]: 5.4 pN

Molecule: B2
binding result [7]: binds

Molecule: B4
binding result [7]: binds

Other lines, results leading:

other: median rupture force [3]: 8.9 pN | other: median rupture force [4]: 4.5 pN
Molecule: Ndc80 complex (heterotetramer of Ndc80, Nuf2, Spc24 and Spc25, S. cerevisiae), wild type (from UniProt P40460;P33895;Q04477;P40014) E568R; V590W; L594E; E597R

binding result [6]: binds
B1: Ask1 subunit of the Dam1 complex (natural protein, S. cerevisiae)
chain: MDSASKEETLEKLDQEITVNLQKIDSNLSFCFHKITQDIIPHVATYSEICERIMDSTEWLGTMFQETGLVNLQANAAAPVGNAPVKSLVSNNVGIFPTSAEEASRQSQTDNGPNEADSAVHVNRDVHSMFNNDSIDDFHTANITSTGQILKLPDSSDEDTGSEAVPSREQTDLTGEGHGGADDEQDESTIQRQSRKRKISLLLQQQYGSSSSMVPSPIVPNKMRKQLAHEEHINNDGDNDDENSNNIESSPLKQGHHHPKGQADDNNEGPDEEESTKEVPKPGTIIHFSTNR
notes: Ask1, S. cerevisiae, as a subunit of the reconstituted Dam1 complex; Stood in the assay inside the whole Dam1c; also called Ask1^B; source: purified as part of Dam1c

binding result [6]: binds
B3: Dad4 subunit of the Dam1 complex (natural protein, S. cerevisiae)
chain: MENPHEQVQANILSRIIGNVKRLNESVAILNQELVTINNRNKNLEIMGAICDNYHSSVQFNLEATNNKKPPL
notes: Dad4, S. cerevisiae, as a subunit of the reconstituted Dam1 complex; Stood in the assay inside the whole Dam1c; also called Dad4^B; source: purified as part of Dam1c

binding result [6]: binds
B5: Dad1 subunit of the Dam1 complex (natural protein, S. cerevisiae)
chain: MMASTSNDEEKLISTTDKYFIEQRNIVLQEINETMNSILNGLNGLNISLESSIAVGREFQSVSDLWKTLYDGLESLSDEAPIDEQPTLSQSKTK
notes: Dad1, S. cerevisiae, as a subunit of the reconstituted Dam1 complex; Stood in the assay inside the whole Dam1c; also called Dad1^A; source: purified as part of Dam1c

binding result [8]: binds | binding result [9]: binds
B6: Spc19 subunit of the Dam1 complex (natural protein, S. cerevisiae)
chain: MTDALEQSVLALEGTVSVLKDSVESLKCANEPSTNLASTMLQTKRVFRLVPEYDVERSKLDLIEEVEPLVRTLGDKLRKSMGRMQRELDTLQQTYELNDLRLKKNISMDDDDALNSPDMGQEYEGRDADDVVMMASSTNEELEELKKLKEKKKQLENKLEILKQK
notes: Spc19, S. cerevisiae, as a subunit of the reconstituted Dam1 complex; Stood in the assay inside the whole Dam1c; source: purified as part of Dam1c
